# Measured values taken from patent publication US20210155955A1, “THERAPEUTIC CONSTRUCTS FOR TREATING CANCER” (CANCER TARGETING SYSTEMS, INC., priority 2018, published 2021).
# Test system: B16F10-Red-FLuc mouse melanoma cells
# Test: B16F10-Red-FLuc experimental metastasis to the lung, N/P=4 and N/P=6 versus recombinant mIL-12 (Example 9)
# Type: in vivo, C57BL/6 mice
# Procedure: The anti-tumor effect of nanoparticles containing PEG-mIL12 and expressing mIL-12 was compared to recombinant mIL-12 protein administered subcutaneously. The experimental design was as Example 8 but nanoparticles were prepared at N/P=4 and N/P=6 ratios. Nanoparticles were dosed as before for N/P=6, however, for the N/P=4 formulation the dose was maintained at 2 mg/kg in 10 mL/kg at day 8. For dosing of the recombinant protein, 10 μg of recombinant mIL-12 (PeproTech, Rocky Hill, N.J., USA) were reconstituted in PBS to make a 100 μg/mL stock solution. Dosing of the animals was at 4 μg/kg for the initial dose (Day 5) followed by four subsequent doses 12 μg/kg at the same intervals as the nanoparticles (Day 8, 11, 14 and 17).
molecule,measurement,setting,value
"recombinant mIL-12: recombinant mIL-12 protein (PeproTech) administered subcutaneously (protein, UniProt P43431 23-215; P43432 23-335, looked up) Interleukin-12 subunit alpha: RVIPVSGPARCLSQSRNLLKTTDDMVKTAREKLKHYSCTAEDIDHEDITRDQTSTLKTCLPLELHKNESCLATRETSSTTRGSCLPPQKTSLMMTLCLGSIYEDLKMYQTEFQAINAALQNHNHQQIILDKGMLVAIDELMQSLNHNGETLRQKPPVGEADPYRVKMKLCILLHAFSTRVVTINRVMGYLSSA Interleukin-12 subunit beta: MWELEKDVYVVEVDWTPDAPGETVNLTCDTPEEDDITWTSDQRHGVIGSGKTLTITVKEFLDAGQYTCHKGGETLSHSHLLLHKKENGIWSTEILKNFKNKTFLKCEAPNYSGRFTCSWLVQRNMDLKFNIKSSSSSPDSRAVTCGMASLSAEKVTLDQRDYEKYSVSCQEDVTCPTAEETLPIELALEARQQNKYENYSTSFFIRDIIKPDPPKNLQMKPLKNSQVEVSWEYPDSWSTPHSYFSLKFFVRIQRKKEKMKETEEGCNQKGAFLVEKTSTEVQCKGGNVCVQAQDRYYNSSCSKWACVPCRVRS",Median survival time compared with Trehalose control,"Log-rank test: p≤0.01 for formulations of PEG-mIL12, p≤0.05 for recombinant mIL-12, Trehalose 22.0 days",significantly longer
same,tumor growth by luminescence readings compared with 9.5% Trehalose control,Study Day 19,significant (p≤0.05) inhibition of tumor growth
same,Median survival time,"nanoparticles i.v. 2 mg/kg Days 5, 8, 11, 14, 17 (N/P=6: 1 mg/kg Day 8), recombinant mIL-12 subcutaneously 4 μg/kg Day 5 then 12 μg/kg",25.0 days
